{"source": "patent US20220175839", "test_in_all_cases": "cell_activity", "key": {"TALEN 103117 (synthetic)": {"system": "TALEN 103117 (synthetic)", "conditions": "pair with 103118; K562, 400 ng"}, "TALEN 103115 (synthetic)": {"system": "TALEN 103115 (synthetic)", "conditions": "pair with 103116; K562, 400 ng"}, "TALEN 103108 (synthetic)": {"system": "TALEN 103108 (synthetic)", "conditions": "pair with 103107; K562, 400 ng"}, "TALEN 103110 (synthetic)": {"system": "TALEN 103110 (synthetic)", "conditions": "pair with 103109; K562, 400 ng"}, "TALEN 103112 (synthetic)": {"system": "TALEN 103112 (synthetic)", "conditions": "pair with 103111; K562, 400 ng"}, "TALEN 103106 (synthetic)": {"system": "TALEN 103106 (synthetic)", "conditions": "pair with 103105; K562, 400 ng"}, "TALEN 103118 (synthetic)": {"system": "TALEN 103118 (synthetic)", "conditions": "pair with 103117; K562, 400 ng"}, "TALEN 103119 (synthetic)": {"system": "TALEN 103119 (synthetic)", "conditions": "pair with 103120 (not in Table 2B); K562, 400 ng"}, "TALEN 103111 (synthetic)": {"system": "TALEN 103111 (synthetic)", "conditions": "pair with 103112; K562, 400 ng"}, "TALEN 103107 (synthetic)": {"system": "TALEN 103107 (synthetic)", "conditions": "pair with 103108; K562, 400 ng"}, "TALEN 103109 (synthetic)": {"system": "TALEN 103109 (synthetic)", "conditions": "pair with 103110; K562, 400 ng"}, "TALEN 103114 (synthetic)": {"system": "TALEN 103114 (synthetic)", "conditions": "pair with 103113; K562, 400 ng"}, "TALEN 103113 (synthetic)": {"system": "TALEN 103113 (synthetic)", "conditions": "pair with 103114; K562, 400 ng"}, "TALEN 103116 (synthetic)": {"system": "TALEN 103116 (synthetic)", "conditions": "pair with 103115; K562, 400 ng"}}, "data": [{"sequence": "GTGTGAACCATGTGACTTTGT (double strand) [TALEN 103117 site]", "values": [{"measurement": "activity", "setting": "TALEN 103117 (synthetic)", "result": 45.7, "unit": "% indel"}]}, {"sequence": "GTATGCCTGCCGTGTGAACCA (double strand) [TALEN 103115 site]", "values": [{"measurement": "activity", "setting": "TALEN 103115 (synthetic)", "result": 66.1, "unit": "% indel"}]}, {"sequence": "GTCACATGGTTCACACGGCAG (double strand) [TALEN 103108/103110 site]", "values": [{"measurement": "activity", "setting": "TALEN 103108 (synthetic)", "result": 4.2, "unit": "% indel"}, {"measurement": "activity", "setting": "TALEN 103110 (synthetic)", "result": 8, "unit": "% indel"}]}, {"sequence": "CTGTGACAAAGTCACATGGTT (double strand) [TALEN 103112 site]", "values": [{"measurement": "activity", "setting": "TALEN 103112 (synthetic)", "result": 26.5, "unit": "% indel"}]}, {"sequence": "TTCACACGGCAGGCATACTCA (double strand) [TALEN 103106 site]", "values": [{"measurement": "activity", "setting": "TALEN 103106 (synthetic)", "result": 14.2, "unit": "% indel"}]}, {"sequence": "TTACCCCACTTAACTATCTTG (double strand) [TALEN 103118 site]", "values": [{"measurement": "activity", "setting": "TALEN 103118 (synthetic)", "result": 45.7, "unit": "% indel"}]}, {"sequence": "ATGTGACTTTGTCACAGCCCA (double strand) [TALEN 103119 site]", "values": [{"measurement": "activity", "setting": "TALEN 103119 (synthetic)", "result": 57.7, "unit": "% indel"}]}, {"sequence": "CTGAAAAAGATGAGTATGCCT (double strand) [TALEN 103111 site]", "values": [{"measurement": "activity", "setting": "TALEN 103111 (synthetic)", "result": 26.5, "unit": "% indel"}]}, {"sequence": "ATTCACCCCCACTGAAAAAGA (double strand) [TALEN 103107/103109 site]", "values": [{"measurement": "activity", "setting": "TALEN 103107 (synthetic)", "result": 4.2, "unit": "% indel"}, {"measurement": "activity", "setting": "TALEN 103109 (synthetic)", "result": 8, "unit": "% indel"}]}, {"sequence": "CTATCTTGGGCTGTGACAAAG (double strand) [TALEN 103114 site]", "values": [{"measurement": "activity", "setting": "TALEN 103114 (synthetic)", "result": 26.6, "unit": "% indel"}]}, {"sequence": "ATGAGTATGCCTGCCGTGTGA (double strand) [TALEN 103113 site]", "values": [{"measurement": "activity", "setting": "TALEN 103113 (synthetic)", "result": 26.6, "unit": "% indel"}]}, {"sequence": "TTAACTATCTTGGGCTGTGAC (double strand) [TALEN 103116 site]", "values": [{"measurement": "activity", "setting": "TALEN 103116 (synthetic)", "result": 66.1, "unit": "% indel"}]}]}
